Laboratory results reported in patent publication US8258099B2, “Pin1-modulating compounds and methods of use thereof” (Max-Planck-Gesellschaft zur Foerderung der Wissenschaften …, priority 2004, dated 2012).
Square brackets hold non-standard residues; d marks the D form. Peptide text beside a SMILES is read from it. * marks the point of attachment. Biotin = O=C1N[C@H]2[C@H](CS[C@H]2CCCCC(=O)*)N1; pT = C[C@@H](OP(=O)(O)O)[C@H](N)C(=O)O; 2Nal = N[C@@H](Cc1ccc2ccccc2c1)C(=O)O; Bta = N[C@@H](Cc1csc2ccccc12)C(=O)O; Pip = O=C(O)[C@@H]1CCCCN1

What was measured:
full length hPin1 = target: T1, full length hPin1 (Homo sapiens, UniProt Q13526); assay: Isothermal titration calorimetry (ITC), full length hPin1; assay type: binding
T1 construct: The protease free assay ensures reliable measurement of IC50 values for the full-length hPin1
T1 sequence (Q13526 whole entry): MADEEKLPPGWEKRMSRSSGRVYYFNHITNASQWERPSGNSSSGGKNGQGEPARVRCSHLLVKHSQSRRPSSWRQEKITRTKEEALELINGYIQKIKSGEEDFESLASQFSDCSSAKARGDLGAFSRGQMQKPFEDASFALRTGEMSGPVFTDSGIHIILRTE
Experimental: FIGS. 3A-B depicts a thermodynamic characterization of the binding of peptide 17 towards full length hPin1 by isothermal titration calorimetry (ITC). FIG. 3A depicts peaks that represent the heat evolved after injection of peptide 17 into the sample cell containing hPin1. After the 11th injection only the heat of dilution is observed. The experiment was performed at 10 C. FIG. 3B depicts integrals of the corresponding peaks of panel A are plotted against the molar ratio of peptide 17 and hPin1. The solid line represents a nonlinear least squares fit analysis of the binding heat assuming a single binding site model with the following parameters: ΔHbind=−4561±36 cal/mol, TΔSbind=5433±529 cal/mol, n=0.96 (binding stoichiometry) and KAss=5.18×10^7±7×10^6 M^−1 (association constant).
Calorimetric experiments were performed using a VP-ITC titration calorimeter (MicroCal, Inc, Northampton, Mass.) at 10° C. All solutions were degassed under vacuum prior to use. Solutions of hPin1 and hPin1 PPIase domain were dialyzed against 10 mM Hepes (pH 7.8). The protein concentration in the sample cell was adjusted to 6.5 μM using the same batch of buffer. Protein concentrations were determined as described above. The volume of the protein solution in the sample cell was 1.4 ml. The injection syringe was filled with 300 μl solution of peptide 17 (see table III) (250 μM in the same batch of buffer as used for dialyses). Each titration experiment consisted of a single 1 μl injection followed by 16 identical injections of 5 μl solution of peptide 17.
In principle, minimally four forms of a competing substrate in the presence of hPin1 have to be considered, the free cis and trans isomers together with two Michaelis complexes. This four-site exchange model of PPIase catalysis involves understanding predisposing factors of the stability of hPin1/substrate complexes, expected to be weaker, than the stability for those formed by phosphopeptides lacking substrate properties. The consequent increase in inhibitory potency could be realized by a transition state destabilizing substitution in peptide 15. Previous studies have shown that following C^α-stereocenter inversion of a substrate at the P1 position the parvulins fully retain substrate-like active site affinity for the derivatives while catalytic rate acceleration is abolished (Schiene et al., 1998). […] To optimize solute diffusion after mechanical injection of the Pin1 binding peptides into the viscous Xenopus laevis egg cytosol, the molecular weight of 1376.5 for peptide 16 was reduced to 823.8 for peptide 17. Following chain truncation peptide 17 maintained high affinity for Pin1 (Table III). To ensure domain selectivity, the binding of peptide 17 towards hPin1 was characterized using the isothermal titration calorimetry (ITC). […] The dissociation constant determined with ITC is in the same range as obtained in the protease-free PPIase assay (Table III).

hPin1 = target: T2, hPin1 (Homo sapiens, UniProt Q13526); assay: Protease free PPIase assay, hPin1; assay type: biochemical; conditions: 25 μM, phosphoester group on threonine lacking
T2 construct: The protease free assay ensures reliable measurement of IC50 values for the full-length hPin1
T2 sequence (Q13526 whole entry): as above
Experimental: Protein concentrations were determined using the extinction coefficient ε280=21030 M^−1 cm^−1 for hPin1, ε280=6979 M^−1 cm^−1 for the hPin1 PPIase domain, ε280=21030 M^−1 cm^−1 for XlPin1, ε280=8250 M^−1 cm^−1 for hPar14 and ε280=8250 M^−1 cm^−1 for hCyp18. Extinction coefficients were calculated using the program ProtParam Tool at ExPASy (SIB, Switzerland). All measurements were done at 10° C. in 35 mM Hepes buffer (pH 7.8).
The determination of the kinetic constants of the cis/trans isomerization within the protease-free system was performed using fluorescence based measurements (Garcia-Echeverria et al., 1993, Zhang et al., 2002) on a Hitachi F-3010 fluorescence spectrophotometer with H-Abz-Ala-Glu-Pro-Phe-NH-Np (SEQ ID NO: 2) as substrate. The substrate stock solution was 12 mM in anhydrous trifluoroethanol/0.55 M LiCl. Measurements were initiated by addition of the substrate (final concentration 10 μM) to a pre-incubated (15 min) mixture of 8.8 nM hPin1 or 7.1 nM XlPin1 and respective inhibitory peptide of desired concentrations. The excitation wavelength was 320 nm (spectral bandwidth 3 nm) and emission was detected at 420 nm (spectral bandwidth 10 nm).
Data analysis was performed by single-exponential nonlinear regression using the SigmaPlot Scientific Graphing System Version 5.00 (Jandel Corp.). The apparent first order rate constant kobs was computed by nonlinear regression of the progress curve obtained for the respective measurement. The rate constant k0 was determined in the absence of Pin1. The first order rate constants kenz was calculated from the equation kenz=kobs−k0. IC50 and Ki values were determined by fitting the first order rate constants kenz against the concentration of the inhibitory peptide by nonlinear regression according to Schutkowski et al., 1995 or a model for tight binding inhibitors (Morrison, 1969).
The protease free assay ensures reliable measurement of IC50 values for the full-length hPin1.

[1] = target: T3, GST-hPin1, GST-hPin1 PPIase and GST-hPin1 WW domain (Homo sapiens, UniProt Q13526); assay: Far western blot related analysis, hPin1 and its single domains; assay type: binding; conditions: 1 μM peptide 15, 50 μM nonphosphorylated derivative
T3 construct: made in house
T3 sequence (Q13526 whole entry, the tested form may be a part): as the sequence (Q13526 whole entry) above
Experimental: FIGS. 2A-B depict western blot experiments analyzing the binding of peptide 15 to Pin1. FIG. 2A depicts the binding preferences of the PPIase and WW domain of hPin1 regarding peptide 15. In far western blot related experiments, increasing amounts (from left to right: 1, 5, 10, 52.5, 105 pmol) of GST, GST-hPin1 or its single GST-hPin1 PPIase and GST-hPin1 WW domain were spotted onto nitrocellulose membranes followed by a blocking procedure. The membranes were then incubated with a 1 μM solution of peptide 15 or 50 μM solution of its nonphosphorylated derivative (control). Signals were detected after incubation of the nitrocellulose membranes with horseradish peroxidase-conjugated streptavidin followed by a chemiluminescent reaction using the SuperSignal® substrate. FIG. 2B depicts an analysis of the binding of peptide 15 towards different GST-hPin1 variants. […] Residual PPIase activities of GST-hPin1 and its variants were determined according to Zhou et al., 2000 and/or Yaffe et al., 1997. The PPIase activity of the GST-hPin1 variant Ser16Glu was measured in the protease free PPIase assay.
GST-hPin1 variants, GST-hPin1 PPIase and GST-hPin1 WW domain were prepared as described previously (Ranganathan et al., 1997, Zhou et al., 2000). […] Specific bound peptide 15 was detected by a chemiluminescent reaction using the SuperSignal® substrate (Pierce).

Compound | Kd (full length hPin1) [µM] | hPin1 inhibition (hPin1) | binding to GST-hPin1 and its PPIase and WW domains [1]
CC(=O)N[C@@H](Cc1ccccc1)C(=O)N[C@H](C(=O)N1CCCC[C@H]1C(=O)N[C@@H](Cc1ccc2ccccc2c1)C(=O)N[C@@H](CCC(N)=O)C(N)=O)[C@@H](C)OP(=O)(O)O [Ac-Phe-L-Thr(PO3H2)-Pip-Nal-Gln-NH2, reference compound] (Ac-F[pT][Pip][2Nal]Q-NH2) | 0.6 | – | –
nonphosphorylated derivative of peptide 15: peptide 15 lacking the phosphoester group on threonine, used as control (Ac-K(Biotin)AA[Bta]T[Pip][2Nal]Q-NH2; SMILES CC(=O)N[C@@H](CCCCNC(=O)CCCC[C@@H]1SC[C@@H]2NC(=O)N[C@@H]21)C(=O)N[C@@H](C)C(=O)N[C@@H](C)C(=O)N[C@@H](Cc1csc2ccccc12)C(=O)N[C@H](C(=O)N1CCCC[C@H]1C(=O)N[C@@H](Cc1ccc2ccccc2c1)C(=O)N[C@@H](CCC(N)=O)C(N)=O)[C@@H](C)O) [reference compound] | – | does not show any hPin1 inhibition | not able to form a complex
